Data published in patent US20210301025A1 (published 2021).

How the values were obtained:
[1] = molecular target: T1, human EGFR on cells (A431, NCI-H292, NCI-H322, NCI-H441) (human, UniProt P00533 25-1210); experiment: cell-based or functional assay
[2] = molecular target: T1, human EGFR on cells (A431, NCI-H292, …); experiment: A431 cell competition with biotinylated EGF
Experimental: A431 cells were plated at 5,000/well in opaque black 96-well plates and allowed to attach overnight at 37° C., in a humidified 5% CO₂ atmosphere. […] Cells were washed 3 times with 150 μL/well of FACS stain buffer. Cells were incubated with 50 μL/well of streptavidin-phycoerythrin conjugate (Invitrogen) diluted 1:100 in FACS stain buffer for 20 minutes at room temperature. Cells were washed 3 times with 150 μL/well of FACS stain buffer, after which wells were filled with 100 μL of FACS stain buffer and read for fluorescence at 600 nm using an Acumen eX3 reader. Data were plotted as the raw fluorescence signal against the logarithm of FN3 domain molar concentration and fitted to a sigmoidal dose-response curve with variable slope using GraphPad Prism 4 (GraphPad Software) to calculate IC₅₀ values.

[3] = molecular target: T2, recombinant human extracellular domain of EGFR fused to an IgG1 Fc (human, UniProt P00533 25-645); experiment: SPR (ProteOn), EGFR-Fc captured on anti-human Fc IgG
T2 construct: Bought (R&D Systems); captured on anti-human Fc IgG for SPR; also called EGFR-Fc
Experimental: Select EGFR-binding FN3 domains were screened to identify those with slow off-rates (koff) in binding to EGFR-Fc on a ProteOn XPR-36 instrument (Bio-Rad) to facilitate selection of high affinity binders. Goat anti-human Fc IgG (R&D systems), at a concentration of 5 μg/mL, was directly immobilized via amine coupling (at pH 5.0) on all 6 ligand channels in horizontal orientation on the chip with a flow rate of 30 μL/min in PBS containing 0.005% Tween-20. The immobilization densities averaged about 1500 Response Units (RU) with less than 5% variation among different channels. EGFR-Fc was captured on the anti-human Fc IgG surface to a density around 600 RU in vertical ligand orientation. All tested FN3 domains were normalized to a concentration of 1 μM and tested for their binding in horizontal orientation. All 6 analyte channels were used for the FN3 domains to maximize screening throughput. The dissociation phase was monitored for 10 minutes at a flow rate of 100 μL/min. The inter-spot binding signals were used as references to monitor non-specific binding between analytes and the immobilized IgG surface, and were subtracted from all binding responses. The processed binding data were locally fit to a 1:1 simple Langmuir binding model to extract the koff for each FN3 domain binding to captured EGFR-Fc.
Binding affinity of selected EGFR-binding FN3 domains to recombinant EGFR extracellular domain was further characterized by surface Plasmon resonance methods using a Proteon Instrument (BioRad). The assay set-up (chip preparation, EGFR-Fc capture) was similar to that described above for off-rate analysis. Selected EGFR binding FN3 domains were tested at 1 μM concentration in 3-fold dilution series in the horizontal orientation. A buffer sample was also injected to monitor the baseline stability.

[4] = molecular target: T1, human EGFR on cells (A431, NCI-H292, …); experiment: cell-based or functional assay; remark: listed apart in the source
[5] = molecular target: human c-Met on cells (NCI-H441, NCI-H292, U87-MG) (human, UniProt P08581 25-1390); experiment: cell-based or functional assay
[6] = molecular target: T2, recombinant human extracellular domain …; experiment: SPR (ProteOn) per Example 3
Source text: (§1) Select EGFR/c-Met molecules were characterized for their affinity to both EGFR and c-Met, their ability to inhibit EGFR and c-Met autophosphorylation, and their effect on proliferation of HGF cells. Binding affinity of the bispecific EGFR/c-Met molecules to recombinant EGFR and/or c-Met extracellular domain was further by surface Plasmon resonance methods using a Proteon Instrument (BioRad) according to protocol described in Example 3.

[7] = molecular target: T3, recombinant c-Met extracellular domain (human, UniProt P08581 16-932); experiment: SPR (ProteOn) per Example 3
T3 construct: Construct used for SPR is not described further (may be the Fc chimera, as the protocol captures on anti-human Fc)
Source text: as §1

[8] = molecular target: T1, human EGFR on cells (A431, NCI-H292, …); experiment: A431 cell binding, anti-His-Alexa488 fluorescence
Experimental: A431 cells were plated at 5,000/well in opaque black 96-well plates and allowed to attach overnight at 37° C., in a humidified 5% CO₂ atmosphere. […] Supernatant was removed and cells were washed 3 times with 150 μL/well of FACS stain buffer. Cells were incubated with 50 μL/well of anti-penta His-Alexa488 antibody conjugate (Qiagen) diluted 1:100 in FACS stain buffer for 20 minutes at room temperature. Cells were washed 3 times with 150 μL/well of FACS stain buffer, after which wells were filled with 100 μL of FACS stain buffer and read for fluorescence at 488 nm using an Acumen eX3 reader. Data were plotted as raw fluorescence signal against the logarithm of the FN3 domain molar concentration and fitted to a sigmoidal dose-response curve with variable slope using GraphPad Prism 4 (GraphPad Software) to calculate EC₅₀ values.

Binder	NCI-H292 Growth IC50 [1]	NCI-H322 Growth IC50 [1]	Phospho-EGFR IC50 (A431 cells) [1]	IC50 [2]	Kd [3]	pEGFR inhibition in H292 cells IC50 [4]	pMet inhibition in H441 cells IC50 [5]	Kd [6]	Kd [7]	EC50 [8]
P54CR4-31 (designed binder, not shown: small tags and cut ends) LPAPKNLVVSEVTEDSLRLSWTAPDAAFDSFLIQYQESEKVGEAINLTVPGSERSYDLTGLKPGTEYTVSIYGVLGSYVFEHDVMLPLSAEFTT	1150 nM	> 3070 nM	179 nM	55 nM	0.383 nM	–	–	–	–	–
ECB95 (designed binder, not shown: small tags and cut ends, Bispecific: P54AR4-83v22, (AP)5, P114AR9P121-A6v2) MLPAPKNLVVSEVTEDSARLSWDDPWAFYESFLIQYQESEKVGEAIVLTVPGSERSYDLTGLKPGTEYTVSIYGVHNVYKDTNIRGLPLSAIFTTAPAPAPAPAPLPAPKNLVVSRVTEDSARLSWTAPDAAFDSFWIRYFEFVGSGEAIVLTVPGSERSYDLTGLKPGTEYVVNILGVKGGSISPPLSAIFTT	–	–	–	–	–	13.6 nM	179 nM	1.1 nM	6.2 nM	–
ECB108 (designed binder, not shown: small tags and cut ends, Bispecific: P54AR4-83v23, (AP)5, P114AR9P122-A7v2) MLPAPKNLVVSEVTEDSARLSWDDPHAFYESFLIQYQESEKVGEAIVLTVPGSERSYDLTGLKPGTEYTVSIYGVHNVYKDTNIRGLPLSAIFTTAPAPAPAPAPLPAPKNLVVSRVTEDSARLSWTAPDAAFDSFWIRYFEFVSKGDAIVLTVPGSERSYDLTGLKPGTEYVVNILGVKGGSISPPLSAIFTT	–	–	–	–	–	814 nM	126 nM	15.3 nM	25.5 nM	–
ECB107 (designed binder, not shown: small tags and cut ends, Bispecific: P54AR4-83v23, (AP)5, P114AR9P121-A6v2) MLPAPKNLVVSEVTEDSARLSWDDPHAFYESFLIQYQESEKVGEAIVLTVPGSERSYDLTGLKPGTEYTVSIYGVHNVYKDTNIRGLPLSAIFTTAPAPAPAPAPLPAPKNLVVSRVTEDSARLSWTAPDAAFDSFWIRYFEFVGSGEAIVLTVPGSERSYDLTGLKPGTEYVVNILGVKGGSISPPLSAIFTT	–	–	–	–	–	812 nM	29.9 nM	16.9 nM	9 nM	–
ECB96 (designed binder, not shown: small tags and cut ends, Bispecific: P54AR4-83v22, (AP)5, P114AR9P122-A7v2) MLPAPKNLVVSEVTEDSARLSWDDPWAFYESFLIQYQESEKVGEAIVLTVPGSERSYDLTGLKPGTEYTVSIYGVHNVYKDTNIRGLPLSAIFTTAPAPAPAPAPLPAPKNLVVSRVTEDSARLSWTAPDAAFDSFWIRYFEFVSKGDAIVLTVPGSERSYDLTGLKPGTEYVVNILGVKGGSISPPLSAIFTT	–	–	–	–	–	24.7 nM	835 nM	1.6 nM	22.1 nM	–
ECB109 (designed binder, not shown: small tags and cut ends, Bispecific: P54AR4-83v23, (AP)5, P114AR7P95-C5v2) MLPAPKNLVVSEVTEDSARLSWDDPHAFYESFLIQYQESEKVGEAIVLTVPGSERSYDLTGLKPGTEYTVSIYGVHNVYKDTNIRGLPLSAIFTTAPAPAPAPAPLPAPKNLVVSRVTEDSARLSWTAPDAAFDSFWIRYFEFLGSGEAIVLTVPGSERSYDLTGLKPGTEYVVNILSVKGGSISPPLSAIFTT	–	–	–	–	–	432 nM	26 nM	17.3 nM	2.1 nM	–
ECB15 (designed binder, not shown: small tags and cut ends) MLPAPKNLVVSEVTEDSARLSWDDPWAFYESFLIQYQESEKVGEAIVLTVPGSERSYDLTGLKPGTEYTVSIYGVHNVYKDTNMRGLPLSAIFTTAPAPAPAPAPLPAPKNLVVSRVTEDSARLSWTAPDAAFDSFWIRYFEFLGSGEAIVLTVPGSERSYDLTGLKPGTEYVVNIMGVKGGKISPPLSAIFTT	–	–	–	–	–	4.2 nM	–	0.2 nM	2.6 nM	–
ECB94 (designed binder, not shown: small tags and cut ends, Bispecific: P54AR4-83v22, (AP)5, P114AR7P94-A3v22) MLPAPKNLVVSEVTEDSARLSWDDPWAFYESFLIQYQESEKVGEAIVLTVPGSERSYDLTGLKPGTEYTVSIYGVHNVYKDTNIRGLPLSAIFTTAPAPAPAPAPLPAPKNLVVSRVTEDSARLSWTAPDAAFDSFWIRYFEFLGSGEAIVLTVPGSERSYDLTGLKPGTEYVVNILGVKGGKISPPLSAIFTT	–	–	–	–	–	5.1 nM	53.8 nM	1 nM	4.3 nM	–
ECB106 (designed binder, not shown: small tags and cut ends, Bispecific: P54AR4-83v23, (AP)5, P114AR7P94-A3v22) MLPAPKNLVVSEVTEDSARLSWDDPHAFYESFLIQYQESEKVGEAIVLTVPGSERSYDLTGLKPGTEYTVSIYGVHNVYKDTNIRGLPLSAIFTTAPAPAPAPAPLPAPKNLVVSRVTEDSARLSWTAPDAAFDSFWIRYFEFLGSGEAIVLTVPGSERSYDLTGLKPGTEYVVNILGVKGGKISPPLSAIFTT	–	–	–	–	–	367 nM	53.3 nM	16.7 nM	5.1 nM	–
ECB97 (designed binder, not shown: small tags and cut ends, Bispecific: P54AR4-83v22, (AP)5, P114AR7P95-C5v2) MLPAPKNLVVSEVTEDSARLSWDDPWAFYESFLIQYQESEKVGEAIVLTVPGSERSYDLTGLKPGTEYTVSIYGVHNVYKDTNIRGLPLSAIFTTAPAPAPAPAPLPAPKNLVVSRVTEDSARLSWTAPDAAFDSFWIRYFEFLGSGEAIVLTVPGSERSYDLTGLKPGTEYVVNILSVKGGSISPPLSAIFTT	–	–	–	–	–	16.6 nM	24.2 nM	1.3 nM	1.7 nM	–
P54AR4-81 (designed binder, not shown: small tags and cut ends) LPAPKNLVVSEVTEDSLRLSWDYDLGVYFDSFLIQYQESEKVGEAINLTVPGSERSYDLTGLKPGTEYTVSIYGVHNVYKDTNMRGLPLSAEFTT	–	–	–	121 nM	–	–	–	–	–	84 nM
P53A1R5-17 (designed binder, not shown: small tags and cut ends) LPAPKNLVVSEVTEDSLRLSWADPHGFYDSFLIQYQESEKVGEAINLTVPGSERSYDLTGLKPGTEYTVSIYGVHNVYKDTNMRGLPLSAEFTT	86 nM	65 nM	> 2500 nM	9.8 nM	1.89 nM	–	–	–	–	4 nM
P54AR4-74 (designed binder, not shown: small tags and cut ends) LPAPKNLVVSEVTEDSLRLSWGYNGDHFDSFLIQYQESEKVGEAINLTVPGSERSYDLTGLKPGTEYTVSIYGVHNVYKDTNMRGLPLSAEFTT	–	–	–	–	–	–	–	–	–	77 nM
P54AR4-17 (designed binder, not shown: small tags and cut ends) LPAPKNLVVSEVTEDSLRLSWTYDRDGYDSFLIQYQESEKVGEAINLTVPGSERSYDLTGLKPGTEYTVSIYGVHNVYKDTNMRGLPLSAEFTT	–	–	184 nM	21 nM	9.62 nM	–	–	–	–	16 nM
